# According to the nanobody polyreactivity screen of Harvey et al. (2022):
# Assay: yeast display, Sf9 membrane polyspecificity reagent, FACS + sequencing; frameworks hold sequencing errors
# Outline: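 Galactose induction of a Saccharomyces cerevisiae BJ5465 synthetic nanobody display library ran 36–48 hours. The cells were then stained for 1 hour at 4 °C with 10% biotinylated, detergent-solubilized Sf9 membrane reagent, pulled down on streptavidin microbeads and FACS-sorted into low and high (top ~1%) gates on expression and reagent-binding fluorescence. Labels for polyreactivity follow the gate of origin.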
row,Sequence,polyreactivity (PSR sort gate)
1,QDQLVETGGGLVQAGVSLRISCAASGSTFYYNAMGWYRQAPGKERELVAAITWSGDSTYYADSVKGRFTISRDNAKNTVYLQMNSLKPEDTAVYYCNAEYYDYFDYVSDYWGQGTQVTVSS,low polyreactivity
2,QDQLVVSGGGLVHAGGSLRLSCAASGRIFHAYGMGWYRQAPGQERELVAAITWRGVSTYYADSVKGRFTISRDNAKNTVYLQMNSLKPEDTAVYYCAARVTPGRNGGGYWGQGTQVTVSS,high polyreactivity
3,QEQLEESGGGLVQAGGSLRLSCAASGFTLGRYAMGWYIQAPGKERELVAAINSSGGRTYYADSVNGRFTISRDTAKNTVYLQLNSLKPEDTAVYYCATVNVRGPPYDFWGQGTQVTVSS,high polyreactivity
4,QEQLHESGGGLVQAGGSLRLSCAASGTISYAGPIGWDRQAPGKAREFVAGIGVGSNTNYADSVKGRFTIIRDNAKNTVYLQMNSLKPEDTAVYYCAVGGYAPLGRPYWGQGTQVTVSS,low polyreactivity
5,QEQLQESGGGLVQAGGSLRLSCAASGYISQSSVMGWYRQAPGKEREFVASISYGATTYYADSVKGRFTISRDNAKNTVYLQTNSRKPEDTAVYYCAVWVKRGFSHRYWGQGTQVTVSS,high polyreactivity
6,QEQLQESGGGQVQAGGSLLLSCAASGNIIRYYYMGWYRQAPGKERELVAAITYGTSTNDADSVKGRFTISRDNAKNTVYLQMNSLKPEDTAVYYCAVDVNYGDPLDNWGQGTQVTVSS,high polyreactivity
7,QEQLQESGGGQVQAGGSLLLSCAASGNIIRYYYMGWYRQAPGKERELVAAITYGTSTNYADSVKGRFTIRRDNAKNTVYLQMNSLKPEDTAVYYCAVDVNYGDPLDNWGQGTQVTVSS,high polyreactivity
8,QEQLQESGSGLVQAGGSLRLSCAASGNIFRDWVMGWYRQAPGKERELVAAISPGAITYYADSVKGRFTISRDNAKNTVYLQTNSLKPEDTEVYYCAAYYIVEYLHGYWGQGTRVTVSS,low polyreactivity
9,QEQLQESGSGLVQAGVSLRLSSAASGNIVQDWVMGWYRQAPGKERELVAAISPGAITYYADSVKGRFTISSDNAKNTVYLQTNRLNPEDTAVYYCAAYYIVEFLHGYWGQGTRVTVSS,low polyreactivity
10,QEQLQGSGGGLVQAGGSLRLTCAASGYIFQNVPMGWNRQAPGKERQLLAGIDNGTSTNYADSVNGRFTISRDNAKNTVYLQMNSLKPEDTAVYYCAAAGQADDTLGYWGQGTQVTVSS,low polyreactivity
11,QEQLVESGGGLVQAGGSLRLSCAATGLTITDYAMGWYRQAPGKERELDAGINTRGTSRYSADSVKGRFTISRDNAKNTVYFQMFSLNPEDTAVYYCDSEYFGYWYGIQYDYWGQGTQVTVSS,high polyreactivity
12,QEQLVESGGGLVQAGGTLRLSSAASVNTISPNAMGWYRQPPGKERELVAAIDSRDGIRYYADSVKGRFTISRDNAKNTVYLQMNSLKPEDTAVYYCAPDEWYGESNYWGQGTQVTVSS,low polyreactivity
13,QFHLVESGGGLVQAGGSLRLSCAASGSNILYYVMGWYRQAPRKERELVAAITWDGGSTYYADSVKGRFTISRDNAKNTVYLELNSLIPEDTAVYYCNKVTTYSYYTEPYEYWGQGTQVTVSS,low polyreactivity
14,QFHLVESVGGLFQAGGSLRLSSAASGRNFSIYAMGWYRQAPGKERELVAAISWSGGRTYYADSVKGRFTISRDTAKNTVYLQMNSLKPEDTAVYYCNAENGWADYYRSDYWGQGTQVTVSS,high polyreactivity
15,QFQIVESGGGLVQAGGSLRISCAASVFIFARYAIGWYRQAHGKEREFVAAISSSGGSTYYADSVKGRFTISRDNAKNTVYLQMNSLKPADTAVYYCNVRLRIRSGYWGQGSQVTVSS,high polyreactivity
16,QFQIVESGGGLVQAGGSLRLSCASSGLIFYKYAMGWYRQAPGKERELVARISYTGGITSYADSVKGRFTISRDNAKNTVYLQMNSLKPEDTAVYYCAARYTRPFGPFDYWGQGTQVTVSS,low polyreactivity
17,QFQLEESGGGLVQAGGSLRLSCAASGSTFWYNAMGWYRQAPGKERELVAAISRSGATTYYADSVKGRFTISRDNAKNTVYLQMNSLKPEDTAVYYCNAVISPSSYVRNSDYWGQGTQVTVSS,low polyreactivity
